These are literature values, as cited in article PMC7557795.

The target in one data set is IL-6R (Homo sapiens) (UniProt P08887).
The target in data set [1] is IL-6R/gp130 (Homo sapiens) (UniProt P08887).
Chain of IL-6R/gp130 (Homo sapiens) (P08887 20-365, chain 1 of 2): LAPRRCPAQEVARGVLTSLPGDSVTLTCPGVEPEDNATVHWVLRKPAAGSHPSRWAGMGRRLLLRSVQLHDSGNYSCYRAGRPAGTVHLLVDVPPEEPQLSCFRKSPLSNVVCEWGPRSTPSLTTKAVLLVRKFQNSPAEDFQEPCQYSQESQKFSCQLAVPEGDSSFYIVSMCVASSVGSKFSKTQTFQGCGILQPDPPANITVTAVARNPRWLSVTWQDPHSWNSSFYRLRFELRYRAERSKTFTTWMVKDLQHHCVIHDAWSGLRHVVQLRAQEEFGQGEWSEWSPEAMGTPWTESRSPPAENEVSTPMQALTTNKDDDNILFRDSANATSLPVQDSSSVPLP
Chain of IL-6R/gp130 (Homo sapiens) (partner, as listed by the source, chain 2 of 2): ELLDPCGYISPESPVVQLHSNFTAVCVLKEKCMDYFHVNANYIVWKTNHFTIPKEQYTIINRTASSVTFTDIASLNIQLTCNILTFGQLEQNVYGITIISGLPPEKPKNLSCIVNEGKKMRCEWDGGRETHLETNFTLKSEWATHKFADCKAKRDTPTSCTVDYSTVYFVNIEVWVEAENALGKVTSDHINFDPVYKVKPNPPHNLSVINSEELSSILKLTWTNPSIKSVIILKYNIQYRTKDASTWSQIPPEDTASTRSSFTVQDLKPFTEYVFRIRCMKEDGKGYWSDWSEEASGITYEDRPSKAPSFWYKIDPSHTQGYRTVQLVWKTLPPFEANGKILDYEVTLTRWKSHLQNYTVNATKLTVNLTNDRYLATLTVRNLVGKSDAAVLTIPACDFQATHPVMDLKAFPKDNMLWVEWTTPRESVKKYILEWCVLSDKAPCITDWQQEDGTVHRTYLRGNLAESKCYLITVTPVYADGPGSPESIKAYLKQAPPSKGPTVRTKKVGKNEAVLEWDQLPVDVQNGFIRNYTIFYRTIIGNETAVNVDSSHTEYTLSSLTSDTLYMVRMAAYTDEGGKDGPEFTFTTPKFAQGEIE

Chain of IL-6 (P05231 30-212): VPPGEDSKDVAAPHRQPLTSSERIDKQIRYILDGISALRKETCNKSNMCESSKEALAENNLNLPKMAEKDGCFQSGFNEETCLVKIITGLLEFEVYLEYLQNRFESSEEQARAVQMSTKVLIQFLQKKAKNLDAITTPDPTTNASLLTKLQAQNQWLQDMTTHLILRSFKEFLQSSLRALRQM
Chain of IL-6R (Homo sapiens) (P08887 20-355): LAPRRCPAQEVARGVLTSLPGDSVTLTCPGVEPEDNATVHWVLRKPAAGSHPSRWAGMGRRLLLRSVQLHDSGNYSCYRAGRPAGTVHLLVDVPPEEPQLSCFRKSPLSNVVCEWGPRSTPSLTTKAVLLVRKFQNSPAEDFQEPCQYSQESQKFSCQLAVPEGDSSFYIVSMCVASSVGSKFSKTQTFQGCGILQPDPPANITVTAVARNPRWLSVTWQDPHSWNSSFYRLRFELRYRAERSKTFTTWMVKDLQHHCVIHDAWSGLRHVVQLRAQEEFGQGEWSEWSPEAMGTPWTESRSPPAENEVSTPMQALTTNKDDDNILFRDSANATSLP

In general, Kd refers to the equilibrium constant for the complex coming apart. Take IL-6 (from UniProt P05231): the Kd is 0.9 nM with IL-6R (Homo sapiens) and 0.08 nM in data set [1].
